“Also recorded” adds a separate entry of the source. Like-named read-outs stand apart in the source and are kept apart here.
B1: NIF: Neutrophil inhibitory factor, 257 amino acids; prepared by Chongqing Fujin Biology and Medicine Company (protein)
chain: NEHNLRCPQNGTEMPGFNDSIRLQFLAMHNGYRSKLALGHISITEESESDDDDDFGFLPDFAPRASKMRYLEYDCEAEKSAYMSARNCSDSSSPPEGYDENKYIFENSNNISEAALKAMISWAKEAFNLNKTKEGEGVLYRSNHDISNFANLAWDAREKFGCAVVNCPLGEIDDETNHDGETYATTIHVVCHYPKINKTEGQPIYKVGTPCDDCSEYTKKADNTTSADPVCIPDDGVCFIGSKADYDSKEFYRFREL
B2: NHH: bifunctional chimeric protein NIF-(Gly)5-hirugen, 274 amino acids, of Chinese patent application 031011551; control protein (protein)
chain: NEHNLRCPQNGTEMPGFNDSIRLQFLAMHNGYRSKLALGHISITEESESDDDDDFGFLPDFAPRASKMRYLEYDCEAEKSAYMSARNCSDSSSPPEGYDENKYIFENSNNISEAALKAMISWAKEAFNLNKTKEGEGVLYRSNHDISNFANLAWDAREKFGCAVVNCPLGEIDDETNHDGETYATTIHVVCHYPKINKTEGQPIYKVGTPCDDCSEYTKKADNTTSADPVCIPDDGVCFIGSKADYDSKEFYRFRELGGGGGNGDFEEIPEEYL

What was measured:
thrombin = thrombin (Homo sapiens, UniProt P00734); experiment: antithrombin activity, in vitro comparative analysis; format: biochemical; set-up: TNHH-G15/n3 and TNHH have the same antithrombin activity
[1] = system: cerebral ischemia in rats subjected to middle cerebral artery occlusion; format: in vivo, Wistar rats; settings: for behavioral score / pathological section of brain (cerebral cortex nerve cells): 2 mg/kg bid caudal vein; for behavioral score: full score 11; for pathological section of brain (cerebral cortex nerve cells): HE, compared with model group
[2] = system: experimental cerebral hematoma in rats; experiment: effects on experimental cerebral hematoma in rats; format: in vivo, SD rats; set-up: key to behavioral score: neurologic defect score, full score 11; higher = more severe disorder; settings: for behavioral score / Brain water content (%): 2 mg/kg bid caudal vein; for behavioral score: full score 11; for Brain water content (%): dry and wet method; for degree of pathological change, remaining cases: 2-3 cases per group
Procedure: SD rats were randomly divided into 4 groups (8 animals per group), including model group, NHH group, NIF group and TNHH group. The rats in each group were anesthetized by chloral hydrate, and then 0.1 ml blood was collected by amputation of tail. The rats were fixed in a stereotaxic apparatus. Median incision of scalp was performed and the periosteum was cut open to expose bregma. Subsequently, a small hole with a diameter of 1 mm was perforated for needle insertion of microsyringe fixed on the stereotaxic apparatus with insertion depth of 5.8 mm (i.e to the position of caudate nucleus) at the site which was 1 mm rearward to the bregma and 3 mm left to the midline, and then 0.1 ml autoblood was injected slowly. Neurological functional defect score was immediately evaluated based on the evaluation criterion after the animal got conscious. The animal with behavior score less than 11 was selected in this study. Behavior score evaluation was continuously carried out after the establishment of model till the end of the experiment.
The neurologic function defect score was evaluated at 5 time points of 4 h, 12 h, 24 h, 48 h and 72 h after the model establishment. Changes of brain water content and histopathological observation were performed at 72 h after the model establishment on sacrificed rats.
Corresponding medicaments (2 mg/kg, bid) were administered through the caudal vein to animals with administration volume of 1 ml/100 g in each group after model animal was successfully established (according to the score less than 11 based on the behavior score evaluation), while the model group received physiological saline in the corresponding volume.
The brain was taken out immediately after the sacrifice of animals, and then […] ectocinerea (cortex was removed) at the edge of haematoma was collected. The brain water content was determined using dry and wet method based on the following formula: Brain water content=(wet weight−dry weight)/wet weight×100%
The brain was immediately taken out by decollation at selected time points, and it was sliced up to be 2 mm thick along the coronal section and then fixed in 10% formaldehyde. The slices were stained by regular HE and mounted. Then the pathological changes occurred in pathological region and the neighboring brain tissues were observed.
Evaluation was performed at the time of 4 h, 12 h, 24 h, 48 h and 72 h after surgery. The method was described as follows:
The flection of forelimbs was observed by lifting the rat by its tail. If the forelimbs symmetrically extended toward the floor, the score was 0. While if wrist flection, or elbow inflection, or internal rotation of shoulder, or both elbow inflection and internal rotation of shoulder occurred to forelimbs of the rat on the opposite side of the surgery part, it was evaluated as scores of 1, 2, 3 and 4, respectively.
The animal was placed on flat floor, and then both shoulders were pushed to move towards the opposite side to examine the resistance. If the resistances on both sides were equal and forceful, it was evaluated as 0. While if the resistance decreased slightly, mildly or severely when pushed to the opposite side of the surgery part, it was evaluated as 1, 2 or 3, respectively.
Both forelimbs of the animal were placed on a metal mesh to observe the muscular tension. The rat with equal and forceful muscular tension of both forelimbs was evaluated as 0. In the same way, the rat was evaluated as 1, 2 or 3, respectively with the reduction of muscular tension on the opposite side of the surgery part mentioned above.
The animal tended to keep turning around to one side was evaluated as 1. Based on the evaluation criterion (with full score of 11), the higher the score was evaluated, the more severe the behavior disorder was.

leukocyte adhesion = experiment: anti-leukocyte adhesion activity, in vitro comparative analysis; format: cell-based; settings: in vitro
[3] = 2 mg/kg bid, brain pathological section

| Molecule | antithrombin activity (thrombin) | behavioral score ([1]; 4 h) | behavioral score ([1]; 8 h) | behavioral score ([1]; 24 h) | behavioral score ([1]; 48 h) | behavioral score ([1]; 72 h) | pathological section of brain (cerebral cortex nerve cells) [1] | Cerebral infarction volume (%) ([1]; 72 h) | behavioral score ([2]; 4 h) | behavioral score ([2]; 12 h) | behavioral score ([2]; 24 h) | behavioral score ([2]; 48 h) | Brain water content (%) ([2]; 72 h) | behavioral score ([2]; 72 h) | degree of pathological change, remaining cases [2, 3] | degree of pathological change, most cases ([2]; 2 mg/kg bid, brain pathological section, model group mostly ++→+++) | anti-leukocyte adhesion activity (leukocyte adhesion) [Unit/mg] |
| --- | --- | --- | --- | --- | --- | --- | --- | --- | --- | --- | --- | --- | --- | --- | --- | --- | --- |
| B1 | None | 6.2 ± 0.8 | 6.5 ± 1.2 | 5.5 ± 0.5 | 5.5 ± 0.4 | 5.5 ± 0.5 | less pathological changes; also recorded: less regular arrangements, a portion of deeply stained nucleus, and some cytoplasmic shrinkage or disappearance | 24.9 ± 9.6 | 1.86 ± 0.90 | 2.14 ± 0.90 | 2.43 ± 0.53 | 3.14 ± 0.90 | 79.36 ± 0.47 | 4.14 ± 1.68 | +→++ | ±→+ | 750 |
| B2 |  | 8.2 ± 1.7 | 8.2 ± 1.7 | 8.0 ± 1.4 | 6.5 ± 1.4 | 5.7 ± 1.2 | less pathological changes; also recorded: less regular arrangements, a portion of deeply stained nucleus, and some cytoplasmic shrinkage or disappearance | 25.2 ± 5.2 | 2.14 ± 0.69 | 1.86 ± 0.90 | 2.43 ± 1.00 | 2.57 ± 0.13 | 78.66 ± 0.55 | 3.57 ± 1.72 | +→++ |  | 650 |
